For one substance, fold increase in signal results are on record in US7306904.

In the experiment the target is soluble PDGF-alpha receptor (UniProt P16234). In words: proximity ligation competition assay in solution: 100 nM PDGF-AA added to 6.4 pM PDGF-BB, 2.5 nM soluble PDGF-alpha receptor and 5 pM aptamer probes; the signal comes from PDGF-BB displaced from the receptor, compared with no PDGF-AA.
Sequence of UniProt P16234 (P16234 24-524 limits assumed): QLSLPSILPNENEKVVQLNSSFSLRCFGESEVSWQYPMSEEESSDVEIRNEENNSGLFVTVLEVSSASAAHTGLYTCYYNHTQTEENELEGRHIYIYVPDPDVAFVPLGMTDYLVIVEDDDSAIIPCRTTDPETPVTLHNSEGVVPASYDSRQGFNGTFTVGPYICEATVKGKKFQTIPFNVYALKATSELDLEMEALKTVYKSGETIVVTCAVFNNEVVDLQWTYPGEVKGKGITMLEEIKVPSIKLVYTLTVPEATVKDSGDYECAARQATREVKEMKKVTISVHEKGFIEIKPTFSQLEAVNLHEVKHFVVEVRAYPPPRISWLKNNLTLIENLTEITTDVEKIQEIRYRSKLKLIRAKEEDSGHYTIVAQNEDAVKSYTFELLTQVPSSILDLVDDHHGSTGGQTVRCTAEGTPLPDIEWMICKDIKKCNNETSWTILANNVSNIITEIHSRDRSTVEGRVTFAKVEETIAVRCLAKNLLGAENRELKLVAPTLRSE

Regarding “PDGF-AA (from UniProt P04085 87-211) (ligand)”, the fold increase in signal turned out to be 3 fold.
